What all share (test): EMSA
For orientation: In EMSA bound probe runs differently from free probe, usually more slowly.

Data set [1] deals with T1, BfmR R210A R210A (Pseudomonas aeruginosa PAO1) (UniProt Q9HWS7).
T1 sequence: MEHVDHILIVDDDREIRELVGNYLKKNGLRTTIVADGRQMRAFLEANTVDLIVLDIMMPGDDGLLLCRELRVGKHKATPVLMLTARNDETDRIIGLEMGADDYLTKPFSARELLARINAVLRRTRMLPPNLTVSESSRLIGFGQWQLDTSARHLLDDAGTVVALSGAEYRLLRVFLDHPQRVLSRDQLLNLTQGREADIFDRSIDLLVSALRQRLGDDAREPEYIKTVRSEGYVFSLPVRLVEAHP

Data set [2] concerns the target T2, BfmR (Pseudomonas aeruginosa PAO1) (UniProt Q9HWS7).
T2 sequence: T1 sequence with A210R

The target in data set [3] is T3, BfmR R202A R202A (Pseudomonas aeruginosa PAO1) (UniProt Q9HWS7).
T3 sequence: T1 sequence with R202A, A210R

In data set [4] the target is T4, BfmR T227A T227A (Pseudomonas aeruginosa PAO1) (UniProt Q9HWS7).
T4 sequence: T1 sequence with A210R, T227A

The target of data set [5] is T5, BfmR D205A D205A (Pseudomonas aeruginosa PAO1) (UniProt Q9HWS7).
T5 sequence: T1 sequence with D205A, A210R

Data set [6] concerns the target T6, BfmR R212A R212A (Pseudomonas aeruginosa PAO1) (UniProt Q9HWS7).
T6 sequence: T1 sequence with A210R, R212A

Data set [7] concerns the target T7, BfmR S209A S209A (Pseudomonas aeruginosa PAO1) (UniProt Q9HWS7).
T7 sequence: T1 sequence with S209A, A210R

In data set [8] the target is T8, BfmR R185A R185A (Pseudomonas aeruginosa PAO1) (UniProt Q9HWS7).
T8 sequence: T1 sequence with R185A, A210R

Positions count from the first letter of the chain named.

Regarding “CATCGGATTCCTGCGAATACTACTGATAACGATAATCTCTATCATTTACTCCATTTTTACATTTACATACACTTGCCCCGCCGCGAATTCCTACGCCGGTTTCCCACATAAACAAGAAACGC (double strand) [PfpvB]”, the binding entry in data set [1] was “binds more weakly”; in data set [2], “binds”; in data set [3], “binds more weakly”; in data set [4] it was “binds more weakly”; in data set [5], “binds more weakly”; in data set [6], “binds more weakly”. For the same sequence, the binding entry in data set [7] and in data set [8] was “binds more weakly” each time.

The values are drawn from article PMC10924945.
